Experimental data reported in patent US20260209333A1 (VETMAB BIOSCIENCES, published 2026).

Columns and labels:
[1] = molecular target: T1, Recombinant canine IL23 (single chain p40 + linker + p19, Avitag, polyHis tag) (canine); test: SPR, Biacore 8K, antibody captured on Protein A chip, antigen as analyte, 25 C
T1 construct: Single chain p40-linker-p19 with a tag for site specific biotinylation and a polyHis tag, expressed in CHO cells as a monomeric protein; also called canine IL23 polypeptide
T1 chain: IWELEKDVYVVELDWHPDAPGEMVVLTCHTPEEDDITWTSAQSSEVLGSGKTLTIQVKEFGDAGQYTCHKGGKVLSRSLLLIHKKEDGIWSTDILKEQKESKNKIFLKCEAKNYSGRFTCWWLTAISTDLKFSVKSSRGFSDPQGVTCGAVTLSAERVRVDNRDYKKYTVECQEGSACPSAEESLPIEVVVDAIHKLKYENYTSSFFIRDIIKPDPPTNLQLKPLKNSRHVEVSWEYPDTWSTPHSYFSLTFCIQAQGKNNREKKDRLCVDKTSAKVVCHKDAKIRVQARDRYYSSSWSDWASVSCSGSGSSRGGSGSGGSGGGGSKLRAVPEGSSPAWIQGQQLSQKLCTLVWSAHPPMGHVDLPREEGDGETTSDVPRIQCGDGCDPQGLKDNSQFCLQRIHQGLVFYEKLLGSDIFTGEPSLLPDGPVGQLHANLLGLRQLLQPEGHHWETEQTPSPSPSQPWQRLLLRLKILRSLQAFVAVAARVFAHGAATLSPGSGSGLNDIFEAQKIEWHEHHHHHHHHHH
Method: (§1) This study was performed to measure the binding affinity of anti-IL23 antibodies to IL23 and p40 antigens using a Biacore 8K.
(§2) All the data were processed using the Biacore 8K Evaluation software version 3.0. Flow cell 1 and blank injection of buffer in each cycle were used as double reference for Response Units subtraction.

[2] = molecular target: T2, Canine p40 polypeptide (canine, UniProt Q28268 23-329); test: as above
T2 sequence (looked up): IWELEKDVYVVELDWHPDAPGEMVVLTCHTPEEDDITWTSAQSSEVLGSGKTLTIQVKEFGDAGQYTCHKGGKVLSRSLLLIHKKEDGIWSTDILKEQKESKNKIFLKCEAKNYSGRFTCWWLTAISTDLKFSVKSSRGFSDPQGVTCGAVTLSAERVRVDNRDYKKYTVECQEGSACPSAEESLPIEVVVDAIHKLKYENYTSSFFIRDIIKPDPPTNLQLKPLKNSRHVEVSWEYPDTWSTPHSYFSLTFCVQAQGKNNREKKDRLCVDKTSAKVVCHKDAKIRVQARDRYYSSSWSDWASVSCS
Method: as §1, §2

[3] = molecular target: T1, Recombinant canine IL23 (single chain …); test: Biacore affinity assay ('Active' = specific binding to canine IL23)
[4] = molecular target: T3, Canine TNF-alpha (Sino Biologicals) (canine, UniProt P51742 77-233); test: SPR, Biacore 8K, antibody captured on Protein A chip, antigen as analyte, 25 C
T3 construct: Bought protein; also called Canine TNFα
T3 sequence (P51742 77-233 limits assumed): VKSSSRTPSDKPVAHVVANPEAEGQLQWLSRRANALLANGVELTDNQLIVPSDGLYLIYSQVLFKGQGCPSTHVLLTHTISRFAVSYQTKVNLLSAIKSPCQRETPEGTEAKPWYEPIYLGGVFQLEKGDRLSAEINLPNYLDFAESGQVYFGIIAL
Method: This study was performed to measure the binding affinity of antibodies to antigens using a Biacore 8K.
as §2

B1: Chimeric anti-IL23 antibody (clone C340 VL and VH domains fused to canine kappa light chain constant region and canine IgG-B constant region) (antibody, V domains shown)
VH: EVQLVQSGAEVKKPGESLKISCKGSGYSFTTYWLGWVRQMPGKGLDWIGIMSPVDSDIRYSPSFQGQVTMSVDKSITTAYLQWNSLKASDTAMYYCARRRPGQGYFDFWGQGTLVTVSS
VL: DIQMTQSPSSLSASVGDRVTITCRASQGISSWLAWYQQKPEKAPKSLIYAASSLQSGVPSRFSGSGSGTDFTLTISSLQPEDFATYYCQQYNIYPYTFGQGTKLEIKR
notes: also called Anti-IL23-VH-VL; Anti-IL23 (full length IgG form)
Kd [1]: 0.58 nM
koff [1]: 0.00338 s⁻¹
kon [1]: 5.83e+06 M⁻¹ s⁻¹
Kd [2]: 1.02 nM
koff [2]: 0.00478 s⁻¹
kon [2]: 4.68e+06 M⁻¹ s⁻¹

B2: Anti-IL23 caninized VL variant V2 / caninized VH variant V6 (antibody, human IgG1, V domains shown)
VH: EVQLVESGGDLVKPGGSLRLSCKGSGYSFTTYWLGWVRQAPGKGLQWIGIMSPVDSDIRYADAVKGRFTVSRDNAKRTLYLQMNSLRAEDTAIYYCARRRPGQGYFDFWGQGTLVTVSS
VL: DIVMTQTPLSLSVSPGEPASISCRASQGISSWLAWYLQKAGQSPRLLPYAASSLQSGVPDRFSGSGSGTDFTLRIGRVEAEDAGIYYCQQYNIYPYTFGQGTRLEVR
notes: also called VL V2 + VH V6
binding result [3]: binds

B3: Anti-IL23 C340 VL / caninized VH variant V1 (antibody, V domains shown)
VH: EVQLVQSGAEVKKPGASVKVSCKGSGYSFTTYWLGWVRQAPGAGLDWMGIMSPVDSDIRYAGKFQGQVTMSVDTSTSTAYMELSSLRAGDIAVYYCARRRPGQGYFDFWGQGTLVTVSS
VL: DIQMTQSPSSLSASVGDRVTITCRASQGISSWLAWYQQKPEKAPKSLIYAASSLQSGVPSRFSGSGSGTDFTLTISSLQPEDFATYYCQQYNIYPYTFGQGTKLEIK
notes: also called VL C340 + VH V1
binding result [3]: binds

B4: Caninized anti-IL23 with VL domain V2.1 and VH domain V1.1 (antibody, V domains shown)
VH: EVQLVQSGAEVKKPGASVKVSCKGSGYSFTTYWLGWVRQAPGAGLDWMGIMSPVDSDIRYSPSFQGQVTMSVDTSTSTAYMELSSLRAGDIAVYYCARRRPGQGYFDFWGQGTLVTVSS
VL: DIVMTQTPLSLSVSPGEPASISCRASQGISSWLAWYQQKAEKAPKSLIYAASSLQSGVPDRFSGSGSGTDFTLRIGRVEAEDAGIYYCQQYNIYPYTFGQGTRLEVR
notes: also called VL V2.1 + VH V1.1; exemplary caninized anti-IL23
binding result [3]: binds

B5: Caninized anti-TNFα D2E7 antibody (caninized VL + canine kappa constant region; caninized VH + canine IgG-B constant region) (antibody, V domains shown)
VH: EVQLVESGGDLVKPAESLRLSCVASGFTFDDYAMHWVRQAPGKGLEWVSAITWNSGHIDYADSVEGRFTISRDNARNTLYLQMNSLRAEDTAVYYCAKVSYLSTASSLDYWGQGTLVTVSS
VL: DIVMTQTPLSLSVSPGEPASISCRASQGIRNYLAWYQQKPGKAPKLLIYAASTLQSGVPDRFSGSGSGTDFTLRIGRVEAEDAGIYYCQRYNRAPYTFGQGTRLEVRR
notes: Expressed in Expi293F cells, 150 kDa, captured on a Protein A chip; also called Caninized Anti-TNF-VH-VL
Kd [4]: 3.91 nM
koff [4]: 0.000818 s⁻¹
kon [4]: 209000 M⁻¹ s⁻¹
